Reference: US20260103532A1 (published 2026)

Target: CD40 (UniProt P25942 21-193, limits assumed)
Assay: not stated (affinity given in the study drug description; no method)

CD40, sequence (P25942 21-193 limits assumed): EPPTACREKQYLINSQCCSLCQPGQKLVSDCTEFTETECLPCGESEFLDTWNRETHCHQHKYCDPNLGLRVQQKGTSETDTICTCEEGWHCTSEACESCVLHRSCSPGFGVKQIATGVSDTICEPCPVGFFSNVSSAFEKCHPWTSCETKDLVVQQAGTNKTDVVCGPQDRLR

B1: KPL-404 (antibody, human IgG4 S228P, kappa, V domains shown)
VH: QVQLVQSGAEVKKPGASVKVSCKASGYTFTNYWMHWVRQAPGQRLEWIGYINPSNDYTKYNQKFKDRATLTADKSANTAYMELSSLRSEDTAVYYCARQGFPYWGQGTLVTVSS
VL: EIVLTQSPATLSLSPGERATLSCSASSSVSYMHWYQQKPGQAPRRWIYDTSKLASGVPARFSGSGSGTDYTLTISSLEPEDFAVYYCHQLSSDPFTFGGGTKVEIKR
notes: also called humanized anti-CD40 antibody; KPL-404 drug product
- Kd: 7.2 nM
